Data reported in publication PMC11074293.

Experiments:
[1] = molecular target: KLHL12^1–161 (human) (UniProt Q53G59); assay: SEC-MALS; WTC-015S5 column, low salt buffer; complexes at 2 mg/ml, KLHL22^1–178 and KLHL12^1–161 alone at 3 mg/ml
[2] = molecular target: KLHL22^1–178 (human) (UniProt Q53GT1); assay: as above
KLHL22^1–178 (human), sequence (Q53GT1 1-178): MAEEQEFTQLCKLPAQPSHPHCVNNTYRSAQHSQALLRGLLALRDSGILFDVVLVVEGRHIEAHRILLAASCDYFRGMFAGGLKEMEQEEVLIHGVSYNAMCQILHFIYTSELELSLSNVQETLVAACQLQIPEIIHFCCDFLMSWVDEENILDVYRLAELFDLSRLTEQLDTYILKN

CUL3^Δ1–24-RBX1, sequence (Q13618 25-768, stated change not applied): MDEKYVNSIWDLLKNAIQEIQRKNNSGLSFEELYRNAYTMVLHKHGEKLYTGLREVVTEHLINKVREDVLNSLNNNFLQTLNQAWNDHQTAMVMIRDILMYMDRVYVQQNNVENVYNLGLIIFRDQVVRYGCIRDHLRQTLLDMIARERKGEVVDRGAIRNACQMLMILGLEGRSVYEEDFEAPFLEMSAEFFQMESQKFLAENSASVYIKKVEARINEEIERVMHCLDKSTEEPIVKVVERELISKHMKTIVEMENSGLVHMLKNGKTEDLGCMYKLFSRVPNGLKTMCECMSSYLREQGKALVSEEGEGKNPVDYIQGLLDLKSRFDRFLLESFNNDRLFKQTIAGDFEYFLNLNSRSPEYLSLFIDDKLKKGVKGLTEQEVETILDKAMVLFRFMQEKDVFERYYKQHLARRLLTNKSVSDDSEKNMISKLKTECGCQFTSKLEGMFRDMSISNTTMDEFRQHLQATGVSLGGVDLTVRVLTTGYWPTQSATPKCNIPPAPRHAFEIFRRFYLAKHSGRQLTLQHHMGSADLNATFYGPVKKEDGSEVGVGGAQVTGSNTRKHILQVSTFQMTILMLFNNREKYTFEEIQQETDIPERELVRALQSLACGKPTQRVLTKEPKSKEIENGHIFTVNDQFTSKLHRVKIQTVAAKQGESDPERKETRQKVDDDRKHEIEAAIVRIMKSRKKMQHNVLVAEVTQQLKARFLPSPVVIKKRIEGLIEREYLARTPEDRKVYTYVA
CUL3^Δ1–24-RBX1, sequence (P62877 whole entry, stated change not applied): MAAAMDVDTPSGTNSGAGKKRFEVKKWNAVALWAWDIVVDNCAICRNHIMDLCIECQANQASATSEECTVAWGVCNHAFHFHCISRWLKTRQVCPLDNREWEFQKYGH
CUL3^WT-RBX1, sequence (Q13618 whole entry): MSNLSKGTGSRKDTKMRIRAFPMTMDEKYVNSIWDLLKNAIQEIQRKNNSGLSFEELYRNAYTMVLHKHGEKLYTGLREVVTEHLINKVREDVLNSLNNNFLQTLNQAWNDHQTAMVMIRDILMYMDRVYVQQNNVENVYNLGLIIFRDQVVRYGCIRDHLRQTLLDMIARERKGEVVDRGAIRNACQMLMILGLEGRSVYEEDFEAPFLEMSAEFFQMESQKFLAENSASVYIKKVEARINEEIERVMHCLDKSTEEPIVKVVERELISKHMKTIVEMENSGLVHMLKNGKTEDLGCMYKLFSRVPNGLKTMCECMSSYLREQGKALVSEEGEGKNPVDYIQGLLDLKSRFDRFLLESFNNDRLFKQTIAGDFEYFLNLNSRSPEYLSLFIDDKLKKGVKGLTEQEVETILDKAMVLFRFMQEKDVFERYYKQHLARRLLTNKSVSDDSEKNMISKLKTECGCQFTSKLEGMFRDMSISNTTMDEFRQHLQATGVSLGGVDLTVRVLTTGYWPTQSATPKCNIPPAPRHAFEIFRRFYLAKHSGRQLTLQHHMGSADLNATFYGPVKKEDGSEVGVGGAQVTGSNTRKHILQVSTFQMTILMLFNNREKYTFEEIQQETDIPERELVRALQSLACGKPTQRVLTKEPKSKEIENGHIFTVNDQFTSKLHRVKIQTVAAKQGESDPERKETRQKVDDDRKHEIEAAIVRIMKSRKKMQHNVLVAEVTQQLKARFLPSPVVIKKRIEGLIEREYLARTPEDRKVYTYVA
CUL3^WT-RBX1, sequence (P62877 whole entry): as the sequence (P62877 whole entry, stated change not applied) above
KLHL12^1–161 (human), sequence (Q53G59 1-161): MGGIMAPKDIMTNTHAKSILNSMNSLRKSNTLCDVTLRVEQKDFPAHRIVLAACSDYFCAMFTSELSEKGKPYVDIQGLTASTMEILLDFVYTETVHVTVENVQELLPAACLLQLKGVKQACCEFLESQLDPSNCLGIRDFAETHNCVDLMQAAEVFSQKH

CUL3^Δ1–24-RBX1 (from UniProt Q13618 25-768; P62877 1-108) (complex)
stoichiometry N (CUL3-RBX1 per KLHL12^1–161 dimer) [1]: 1
stoichiometry N (CUL3-RBX1 per KLHL22^1–178 dimer) [2]: 1

CUL3^WT-RBX1 (from UniProt Q13618 1-768; P62877 1-108) (complex)
stoichiometry N (CUL3-RBX1 per KLHL22^1–178 dimer) [2]: 2
